The target in data set [1] is KinAN-GFP-his6 (Bacillus subtilis). Kind of data set: native gel or EMSA; blue native PAGE (4-16% gradient gel) of Ni-NTA eluates, immunoblot with anti-GFP antibodies; sizes from a regression line of NativeMark standards.
Data set [2] concerns the target PAS-BC-GFP-his6 (Bacillus subtilis). The data set is described as above.
For data set [3], the target named is KinA^ΔPAS-A-GFP (Bacillus subtilis). Put plainly: cross-linking; cell extracts of B. subtilis lacking native kinA (LB, 10 μmol/L IPTG) incubated with or without bis-maleimidohexane (BMH, sulfhydryl-specific); SDS-PAGE (10%), immunoblot with anti-GFP antibodies; sizes from a regression line of mass standards. For orientation: In western blotting, separated proteins are transferred to a membrane and probed.

In data set [4] the target is KinAN-GFP (Bacillus subtilis). The description is as above.
Data set [5] concerns the molecule itself. The data set is described as above.

Several values for one entry are separate records, joined by “and”; a condition that tells them apart may be missing. Identical values can stand only once.

By stoichiometry N is commonly meant a count of units in the complex or per binding partner. On to KinAN-GFP-his6 (domain or fragment), for which the stoichiometry N in data set [1] is 4 and 2.
As to PAS-BC-GFP-his6 (domain or fragment), in data set [2], the stoichiometry N was 4 and 2.
In data set [3], KinA^ΔPAS-A-GFP (domain or fragment) showed a stoichiometry N of 4.
Take KinAN-GFP (domain or fragment): the stoichiometry N in data set [4] was determined as 4.

B1: full-length KinA-GFP (natural protein, Bacillus subtilis, UniProt P16497 1-606, looked up)
chain: MEQDTQHVKPLQTKTDIHAVLASNGRIIYISANSKLHLGYLQGEMIGSFLKTFLHEEDQFLVESYFYNEHHLMPCTFRFIKKDHTIVWVEAAVEIVTTRAERTEREIILKMKVLEEETGHQSLNCEKHEIEPASPESTTYITDDYERLVENLPSPLCISVKGKIVYVNSAMLSMLGAKSKDAIIGKSSYEFIEEEYHDIVKNRIIRMQKGMEVGMIEQTWKRLDGTPVHLEVKASPTVYKNQQAELLLLIDISSRKKFQTILQKSRERYQLLIQNSIDTIAVIHNGKWVFMNESGISLFEAATYEDLIGKNIYDQLHPCDHEDVKERIQNIAEQKTESEIVKQSWFTFQNRVIYTEMVCIPTTFFGEAAVQVILRDISERKQTEELMLKSEKLSIAGQLAAGIAHEIRNPLTAIKGFLQLMKPTMEGNEHYFDIVFSELSRIELILSELLMLAKPQQNAVKEYLNLKKLIGEVSALLETQANLNGIFIRTSYEKDSIYINGDQNQLKQVFINLIKNAVESMPDGGTVDIIITEDEHSVHVTVKDEGEGIPEKVLNRIGEPFLTTKEKGTGLGLMVTFNIIENHQGVIHVDSHPEKGTAFKISFPKK
notes: Sporulation kinase KinA, Bacillus subtilis (strains derived from PY79), full length; Tetramer by BMH cross-linking; also called MF3352; source: B. subtilis lacking the native kinA gene, IPTG-inducible promoter (10 μmol/L IPTG, LB), in cell extract
Consider B1, for which the “stoichiometry N” value in data set [5] was found to be 4.

B2: KinA^ΔPAS-AB-GFP (domain or fragment, Bacillus subtilis, UniProt P16497 259-606, looked up)
chain: QTILQKSRERYQLLIQNSIDTIAVIHNGKWVFMNESGISLFEAATYEDLIGKNIYDQLHPCDHEDVKERIQNIAEQKTESEIVKQSWFTFQNRVIYTEMVCIPTTFFGEAAVQVILRDISERKQTEELMLKSEKLSIAGQLAAGIAHEIRNPLTAIKGFLQLMKPTMEGNEHYFDIVFSELSRIELILSELLMLAKPQQNAVKEYLNLKKLIGEVSALLETQANLNGIFIRTSYEKDSIYINGDQNQLKQVFINLIKNAVESMPDGGTVDIIITEDEHSVHVTVKDEGEGIPEKVLNRIGEPFLTTKEKGTGLGLMVTFNIIENHQGVIHVDSHPEKGTAFKISFPKK
notes: KinA of Bacillus subtilis without PAS-A and PAS-B; 'our autokinase-deficient PAS-AB mutant (aa 259-606)'; also called MF3356; source: B. subtilis lacking the native kinA gene, IPTG-inducible promoter (10 μmol/L IPTG, LB), in cell extract
Regarding B2, the “stoichiometry N” value in data set [5] came out at 2.
